# Source: the DeepSol protein solubility set
# Experiment: soluble on expression in E. coli; label from the status in PepcDB or PDB records
row,Sequence,soluble on expression in E. coli
1,MKINSPLEAYKYLPQTNCGECGQPTCMAFASTLIDRSGKTTDCPPLIKEKKFAKKLAELDRLLAPEIRQVTIGVGERAANIGGDDVLYRHKLTFFNKTKMFFDVADNMDEAAIVERVKKISDYKKFYVGRNLLLDGVAIRAASNDPAKFATAVKKVIENTELPVILCSFNPAVLKAGLEVAKGKNPLLYAANKDNWKEVGELALEYNVPVVVSAFNDLDGLKTLAKTFAEAGIKDIVLDPGTYPTGKGLKDTFTNFLKIRRAGIMGDTEIAYPIMAMPLTAWMAGIADPVSASYWETVLASIFTIRYGDIMLLHSMEPYATMPEVHLAETIYTDPRSPVAVDSKMYKVGNPTADSPVLFTTNFALTYYTVESDLASNGIDCWLLAVNTDGIGVEAAAAGGQLTADKVKDAFEKSGFDLKSDVTHNSVVIPGLAARLQGDIEDKLNVKVMVGPMDSGRLPGWMEKNWPPKK,not soluble
2,MKIRSPIVSVLGHVDHGKTTLLDHIRGSAVASREAGGITQHIGATEIPMDVIEGICGDFLKKFSIRETLPGLFFIDTPGHEAFTTLRKRGGALADLAILIVDINEGFKPQTQEALNILRMYRTPFVVAANKIDRIHGWRVHEGRPFMETFSKQDIQVQQKLDTKVYELVGKLHEEGFESERFDRVTDFASQVSIIPISAITGEGIPELLTMLMGLAQQYLREQLKIEEDSPARGTILEVKEETGLGMTIDAVIYDGILRKDDTIAMMTSKDVISTRIRSLLKPRPLEEMRESRKKFQKVDEVVAAAGIKIVAPGIDDVMAGSPLRVVTDPEKVREEILSEIEDIKIDTDEAGVVVKADTLGSLEAVVKILRDMYVPIKVADIGDVSRRDVVNAGIALQEDRVYGAIIAFNVKVIPSAAQELKNSDIKLFQGNVIYRLMEEYEEWVRGIEEEKKKKWMEAIIKPASIRLIPKLVFRQSKPAIGGVEVLTGVIRQGYPLMNDDGETVGTVESMQDKGENLKSASRGQKVAMAIKDAVYGKTIHEGDTLYVDIPENHYHILKEQLSGDLTDEELDLMDKIAEIKRKKNPDWGMKAPF,soluble
3,MKIYLVGGAVRDALLGLPVKDKDWVVVGATPQEMLDAGYQQVGRDFPVFLHPQTHEEYALARTERKSGSGYTGFTCYAAPDVTLEADLQRRDLTINALARDDAGQIIDPYHGRRDLEARLLRHVSPAFGEDPLRVLRVARFAARYAHLSFRIADETLALMREMTAAGELEHLTPERVWKETENALTTRNPQVYFQVLRDCGALRVLFPEIDALFGVPAPAKWHPEIDTGVHTLMTLSMAAMLSPQLDVRFATLCHDLGKGLTPKNLWPRHHGHGPAGVKLVEQLCQRLRVPNDLRDLAKLVAEYHDLIHTFPILQPKTIVKLFDAIDAWRKPQRVEQIALTSEADVRGRTGFEASDYPQGRWLREAWQVAQAVPTKEVVEAGFKGIEIREELTKRRIAAVANWKEKRCPNPAS,not soluble
4,MKKAVVVFSGGQDSTTCLVQALKEFDEVHAITFDYGQRHKLEIEVAQKIAKDLGVKAHKVMDVGLLNELAISSLTRDDIPVSHELQENGLPNSFVPGRNILFLTLAGIYAYQIGADTVITGVCETDFSGYPDCRDDFVKSMNTALVKGMDRALTIKTPLMWLNKAETWALADQYNALQLVRENTLTCYNGIIGDGCGDCPSCDLRKAGLDEYLNNKDAVMKSLVQKQESEGL,not soluble
5,MKKFFRFQLCCICLLVLIVSACKVKRPDSVISESEMENLLYDYHIAKAMGENMPGGENYKKALYVEAVFKKYGTTEEVFDSSMVWYTRNTKILSEIYEKVNKRLKAQQNAINHLIALRDNKPKMSAPGDSINVWAWQRIAQLTEAPLNNKFTFTLPSDTNFKKRDVLLWKMQYNFLSEIPDSTMAPIMAMQIVYENDTVTHSCVKHIFKSGIQNIRLQSDTMNIKEIKGFIFCPLSEESITLLVSDISLTRYHANDSITQISKDSLKTDSIKEKSKNDSIQKKTPKDTIQASSSHQRTNPNDLNRPNNDVRPIKPEQREKEMQIEKEKQQLERQQRTNPRRPLRRQNN,not soluble
6,MKKGHHHHHHGSQYNPQVADLKAFSKHIYNAYLKNFNMTKKKARSILTGKASHTAPFVIHDIETLWQAEKGLVWKQLVNGLPPYKEISVHVFYRCQCTTVETVRELTEFAKSIPSFSSLFLNDQVTLLKYGVHEAIFAMLASIVNKDGLLVANGSGFVTREFLRSLRKPFSDIIEPKFEFAVKFNALELDDSDLALFIAAIILCGDRPGLMNVPRVEAIQDTILRALEFHLQANHPDAQYLFPKLLQKMADLRQLVTEHAQMMQRIKKTETETSLHPLLQEIYKDMY,soluble
